Target: RELA (wild type), NF-kB subunit p65 (UniProt Q04206 1-551)
Assay: cell-based or functional assay

RELA (wild type), NF-kB subunit p65, sequence (Q04206 whole entry): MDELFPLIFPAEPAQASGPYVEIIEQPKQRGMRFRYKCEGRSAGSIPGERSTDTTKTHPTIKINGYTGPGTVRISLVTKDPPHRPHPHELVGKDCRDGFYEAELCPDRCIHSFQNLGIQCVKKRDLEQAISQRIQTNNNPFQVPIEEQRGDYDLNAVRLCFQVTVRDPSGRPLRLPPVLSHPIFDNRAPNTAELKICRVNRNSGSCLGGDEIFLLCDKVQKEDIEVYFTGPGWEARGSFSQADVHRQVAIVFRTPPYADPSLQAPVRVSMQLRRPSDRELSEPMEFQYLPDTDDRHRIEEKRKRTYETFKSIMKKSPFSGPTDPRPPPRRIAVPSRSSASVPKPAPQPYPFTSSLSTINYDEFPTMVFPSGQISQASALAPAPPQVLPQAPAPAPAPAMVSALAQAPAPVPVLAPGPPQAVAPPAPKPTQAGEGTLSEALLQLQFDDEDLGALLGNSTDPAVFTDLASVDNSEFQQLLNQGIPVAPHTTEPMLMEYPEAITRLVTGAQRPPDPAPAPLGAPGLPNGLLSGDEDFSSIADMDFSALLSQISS

| IL-8 promoter driven firefly luciferase (dual luciferase assay) in Ovcar4 cells, reduction against wild type TWIST1 [%] | Binder |
| --- | --- |
| 50 | TWIST1 E193A (natural protein, human, UniProt Q15672 1-202, looked up) MMQDVSSSPVSPADDSLSNSEEEPDRQQPPSGKRGGRKRRSSRRSAGGGAGPGGAAGGGVGGGDEPGSPAQGKRGKKSAGCGGGGGAGGGGGSSSGGGSPQSYEELQTQRVMANVRERQRTQSLNEAFAALRKIIPTLPSDKLSKIQTLKLAARYIDFLYQVLQSDELDSKMASCSYVAHERLSYAFSVWRMAGAWSMSASH |
| 50 | TWIST1 W190A (natural protein, human, UniProt Q15672 1-202, looked up) MMQDVSSSPVSPADDSLSNSEEEPDRQQPPSGKRGGRKRRSSRRSAGGGAGPGGAAGGGVGGGDEPGSPAQGKRGKKSAGCGGGGGAGGGGGSSSGGGSPQSYEELQTQRVMANVRERQRTQSLNEAFAALRKIIPTLPSDKLSKIQTLKLAARYIDFLYQVLQSDELDSKMASCSYVAHERLSYAFSVARMEGAWSMSASH |
| 50 | TWIST1 R191A (natural protein, human, UniProt Q15672 1-202, looked up) MMQDVSSSPVSPADDSLSNSEEEPDRQQPPSGKRGGRKRRSSRRSAGGGAGPGGAAGGGVGGGDEPGSPAQGKRGKKSAGCGGGGGAGGGGGSSSGGGSPQSYEELQTQRVMANVRERQRTQSLNEAFAALRKIIPTLPSDKLSKIQTLKLAARYIDFLYQVLQSDELDSKMASCSYVAHERLSYAFSVWAMEGAWSMSASH |
